The record followed here is patent US20190031761A1 (SAMSUNG LIFE PUBLIC WELFARE FOUNDATION, published 2019).

The target in assay [1] is EGFR expressed on cells (780 patient-derived cells; normal human epidermal keratinocytes) (human, UniProt P00533 25-1210). Description: FACS on normal human epidermal keratinocytes (EGFR only), Alexa Fluor 488 anti-human IgG.
Assay [2] has as its target T1, EGFRvIII recombinant protein with Fc tag, produced in-house (human).
T1 construct: Produced in Expi293 cells; also called EGFRvIII antigen
Kind of assay: SPR (Biacore T200), antibody captured with human Fab capture kit, EGFRvIII antigen 0.25 nM to 256 nM as analyte.

For assay [3], the target named is T2, recombinant human EGFR/ErbB1 Fc chimera protein (R&D systems, 344-ER) (human, UniProt P00533 25-645).
T2 construct: Bought protein; also called EGFR recombinant protein; Fc part of the bought chimera not given
Kind of assay: SPR (Biacore T200), B4A3 captured as ligand, rhEGFR-Fc as sample, 25 C, 1:1 Binding fit to sensorgrams that hardly leave the baseline.

For assay [4], the target named is T3, EGFRvIII expressed in cells (vIII352T1 cells; 626 patient-derived cells) (human, UniProt P00533 25-1210).
T3 construct: whole, on cells; On vIII352T1 cells (EGFR-/EGFRvIII+) in FACS and cytotoxicity assays
Kind of assay: FACS on vIII352T1 cells (EGFRvIII only), Alexa Fluor 488 anti-human IgG.

T1 sequence (chain, as listed by the source limits assumed): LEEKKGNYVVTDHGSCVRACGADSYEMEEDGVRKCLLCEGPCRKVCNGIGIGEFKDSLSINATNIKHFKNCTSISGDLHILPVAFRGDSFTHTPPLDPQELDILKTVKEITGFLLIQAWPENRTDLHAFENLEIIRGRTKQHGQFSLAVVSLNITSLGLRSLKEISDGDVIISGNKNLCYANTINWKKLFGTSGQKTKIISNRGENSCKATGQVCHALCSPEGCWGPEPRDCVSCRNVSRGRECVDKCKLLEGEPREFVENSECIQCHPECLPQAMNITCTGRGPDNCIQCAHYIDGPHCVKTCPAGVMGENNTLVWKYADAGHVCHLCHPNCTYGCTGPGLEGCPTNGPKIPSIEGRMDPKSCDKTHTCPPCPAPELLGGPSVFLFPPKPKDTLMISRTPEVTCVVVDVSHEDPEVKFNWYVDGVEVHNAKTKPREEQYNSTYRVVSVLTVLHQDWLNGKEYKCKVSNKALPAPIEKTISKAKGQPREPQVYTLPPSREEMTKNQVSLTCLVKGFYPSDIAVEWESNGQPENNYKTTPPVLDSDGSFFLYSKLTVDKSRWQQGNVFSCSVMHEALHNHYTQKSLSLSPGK

B1: B4A3 antibody (human IgG1) (antibody, V domains shown)
VH: EVQLLESGGGLVQPGGSLRLSCAASGFTFSNYYMSWVRQAPGKGLEWVSGTSPNGGSKYYADSVKGRFTISRDNSKNTLYLQMNSLRAEDTAVYYCAKGRRKLRATRFDYWGQGTLVTVSS
VL: QSVLTQPPSASGTPGQRVTISCTGSSSNIGNNYVSWYQQHPGTAPKLLIYSDSNRPSGVPDRFSGSKSGTSASLAISGLRSEDEADYYCATWDASLSAYVFGGGTKLTVL
notes: also called B4A3 IgG; B4A3 human IgG1
With B1, the half-maximal effective concentration (EC50 (read off the curve)) in assay [1] is roughly 0.03 nM. Moreover, in assay [2], the equilibrium dissociation constant (Kd) came to 4.38 nM, the koff was 0.000248 s⁻¹ and the kon is 56600 M⁻¹ s⁻¹. Also, in assay [3], the koff is 0.00801 s⁻¹ and the kon turned out to be 632 M⁻¹ s⁻¹. Besides, in assay [4], the “EC50 (read off the curve)” value was roughly 0.04 nM.
